Results: the nanobody polyreactivity screen of Harvey et al. (2022)

Assay: yeast display, Sf9 membrane polyspecificity reagent, FACS + sequencing; frameworks hold sequencing errors
In short: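 A synthetic nanobody library was expressed on Saccharomyces cerevisiae BJ5465 by galactose induction for 36–48 hours. The library was stained for 1 hour at 4 °C with 10% biotinylated, detergent-solubilized Sf9 membrane reagent and enriched with streptavidin microbeads before FACS. Low and high (top ~1%) gates were set on anti-HA fluorescence for expression and streptavidin fluorescence for reagent binding, and each polyreactivity label reflects the gate of origin.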

Sequence	polyreactivity (PSR sort gate)
QVQLVESGGGLVQAGVSLRISCAASGGTLNGYAMGWYRQSPGKERELVAVITSGGSTNYADSVKGLFTISRDNAKNTVYLQMNSLKPEDTAVYYCAVRPYELHRLADQPGGDDYWGQGTQVTVSS	low polyreactivity
QVQLVESAGGLVQAGGSLRLSCAASGRIFGQYTMGWYRQAPGKERELDAAISSSGGRTYYADSVKGRFTISRDNAKNTVYLQMNSLKPEDTAVYYCAARDRPSPYYYWGQGTQVTVSS	high polyreactivity
QVQLVESGGGLVQAGGSLRLSCAASGRIFGPYAMGWYRQAPGKERELVASISYSRGSTYYADSVKGRFTISRDNANNTVYLQMNSLKPEDTAVYYCAKGGYWRGYNYWGQGSQVTVSS	low polyreactivity
QVQLVESGGGLVQAGGSLRLSCAASGSIFRPYAMGWYRQAPGKERELVAGITFIGGSTYYADSVKGRFTISRDNAKNTVYLQRNSLKPEDTAVYYCNADVAPGIFYGYDSWGQGTQVTVSS	low polyreactivity
QVQLVESGGGLVQAGGSLRLSCAASGSTFYYNTMGWYRQAPGKERELVAAISWRGGSTYYADSVKGRYTISRDNAKNTVYLQMNSLKPEDTAVYYCAALTYYGSDYWGQGTQVTVSS	high polyreactivity
QVQLVESGGGLVQAGGSLRLSCAASGRTYGIYAMGWYRQAPGKERELVADITIGGSTYYADSVMGRFTISRDNAKNTVYLQMNSLKPEDTAVYYCNADFVVQYYFTYYRVFTYDYWGLGTQVTVSS	low polyreactivity
QVQLVESGGGLVQAGGSLRLSCAASGSIFYFYTMGWYRQAPGKEREFVAAINGIGGSTYYADSVKGRFTISRDNAKNTVYLQMNSLKPEDTAVYYCAADAPWFKRNARKYNYWGQGTQVTVSS	low polyreactivity
QVQLVESGGGLVQAGGSLRLSCAASGYIFVVNAMGWYRQAPGKERELVAAIDWGGGSTYADSVKGRFTISRDNAKNTVYLQMYSLKPEDTAVYYCAADLWPYPNDYWGQGTQVTVSS	low polyreactivity
QVQLVESGGGLVQAGGSLRLSCAASGRTFRFNAMGWYRQAPGKEREFVAAITSGGGTYYADSVKGRFTISRDNGKNTVYLQMNSLKPEDTAVYYCATVGKVHHRLVAMDYWGQGTQVTVSS	low polyreactivity
QVQLVESGGGLVQAGGSLRLSCAASGYTFSHYDMGWYRQAPGKERELVAGITWSGGSTYYADSVKGRFTISRDNAKNTVYLQMNSLIPEDTSVYYCAAKYYWYYSYSGIPLFDYWGQGTQVTVSS	low polyreactivity
QVQLVESGGGLVQAGGSLRLSCAASGSIFTLYTMGWYRQAPGKERELVAGISWRGGRTYYADSVKGRFTISRDNAKNTVYLQMNSLKPEDTAVYYCAAKWTPHIYTLYSWGQGTQVTVSS	high polyreactivity
QVQLVESGGGLVQAGGSLRLSCAASGRTIDSYAMGWSRQAPGKEREFVAAISYSGTSTYYADSVKGRFTISRDNAKNTVYLQMNSLKPEDTAVYYCSKEYNFRLWGQGTQVTVSS	low polyreactivity
QVQLVDSGGGLVQAGGSLRLSCAASGRIFRLYAMGWYRPAPGKERELVATITRSGVSTYYADSVKGRFTISRDNAKNTVYLQMNSLKPEDTAVYYCAVDRWGRYYATQYTFDYWGQGTQVTVSS	high polyreactivity
QVQLVESGGGLVQAGGSLRLSCAASGLTFPYYAMGWYRQAPGKERELVATISWSSISTYYADSVKGRFTISRDNAKNTVYLQMNSLKPEDTAVYYCNARYSLRRGYDYWGQGTQVTVSS	low polyreactivity
QVQLVESGGGLVHAGGSLRLSCAASGSTFYSNVMGWYRQAPGKERELVAAISRSGGSTYYADSVKGRFTISRDNAKNTVYLQMNSLKAEDTAVYYCNRLRAPVRGDYWGQGTQVTVSS	high polyreactivity
QVQLVESGGGLVQAGGSLRLSCAASGRIFTRYAMGWYRQAPGKERELVATISRGGNTNYADSVKGRFTISRDNAKNTVYLQMNSLKPEDTAVYYCAKYPVSRVGGYGYWGQGTQVTVSS	low polyreactivity

Sequence	polyreactivity (PSR sort gate)
QVQLVESGGGLVQAGGSLRLSCAASGSIFPLYAMGWYRQAPGKERELVAAISWSGGSTYYADSVKGRFTISRDNAKNTVYLKMNSLKPEDTAVYYCATLYISTSGYIYEGDYWGQGTQVTVSS	high polyreactivity
QVQLVESGGGLVQAAGSLRLSCAASGRTFYDNAMGWYRQAPGKERELVAAITKSGGRTYYVDSVKGRFTISRDNAKNTVYLQMNSLKPEDTAVYYCAASWPNYLYEYWGQGTQVTVSS	high polyreactivity
QVQLVDSGGGLVQAGGSLRLSCAASGSILAINTMGWYRPAPGKEREFVAAISAGGTSTYYADSVKGRFTISRDNAKNTVSLQMNSLKPEDTAVYYCAAIFIIYRTGYRRYYWGQGTQVTVSS	high polyreactivity
QVQLGESGGGLVQAGGSLRLSCAASGSIFGSYAMGWYRQATGKERELVAAISYSGGTTYYADSVKGRFTNSRDNAKNTVYLQMNSLKPEDTAVYYCNAPVAYEREYEYWGQGTQVTVSS	low polyreactivity
QVQLVESVGGLVQAGGSLPLSCAASGSTFVDYDMGWYRQAPGKERELVAAITYSGARTYYADSVKGRFTISRDNAKNTVYLQMNSLTPEDSAVYYGNADQRTASDQLEFDYWGQGTQVTVSS	low polyreactivity
QVQLVESGGGLVQAGGSLRISCAASGSTFYRNAMGWYRQAPGKEREFVAAISFRGGGTYADSVKGRFTISRDNAKNTVYLQMNSLKPEDTAVYYCAADHLSYRRRYEYWGQGTQVTVSS	low polyreactivity
QVQLVKSGGGLVQAGGSLRLSCAASGFIIPEYTMGWYRQAPVKERELVAAISGSGGSTYYADSVKGRFTISRDNAKNTVYLQMNSLKPEDTAVYYCAASYAVSRYLQTYAHAHGYWGQGTQVTVSS	low polyreactivity
QVQLVESGGGLVQAGGSLRLSCAASGSNFRGYTMGWYRQAPGKERELVAAISLSGGSTYYADSVKGRFTISRDNAKNTVYLQMNSLKPEDTAVYYCAASLPWYDEFDYWGQGTQVTVSS	low polyreactivity
QVQLVESGGGLVQAGGSLRLSCAASGSTFGSNDLGWYRQAPGQERELVAAITWSGGSTFYADSVKGRFTISRDNAKNTVYLQMNSLKPEDTALYSCAVSTEVNRYHAKYDYRGQGTQVTVSS	low polyreactivity
QVQLQESGGGLVQAGGSLRLSCAASGTISDSGLMGWYRQAPGKERELVAGISSGGITNYADSVKGRFTISRDNAKNTVYLQMKSLKPEDTAVYWGQGTQVTVSS	low polyreactivity
QVQLVESGGGLVQAGGSLRLSCAASGSIFVGNAMGWYRQAPGKERELFAAISSSGGSTYYADSVKGRFTISRDKAKNTFYLQMNILKPEDTAVYYCASDTYSTSGFYYWGQGTQVTVSS	low polyreactivity
QVQLVESGGGLVQAGGSLRLSCAASGRIFQYNVMGWYRKAPGKERELVASISDGVGTNYADSVKGRFTISRDNAKNTVYLQMNSLKPEDTAVYYCARDLDPGYQYTGPYDYWGQGTQVTVSS	low polyreactivity
QVQLVESGGGLVQAGGSLRLICAASGIIFQYYAMGWYRQAPGKERELVAAISWSGGSTYYADSVKGRFTISRDNAKNTVYLQMNSVKPEETAVYYCNAVYYSRIVGVRIYDYWGQGTQVTVSS	low polyreactivity
QVQLEDSGGGLVQAGGSLRLSCAASGSIIGSYAMGLYRQAPGKERELVAAISRRGGSTYYADSVKGRFTISRDNAKNTVYLQMNSLKPEDTAVYYCARRDYGVLNKGLGQEGDYWGQGTQVTVSS	low polyreactivity
QVQLVESGRGLVQAGGSLRLSCAASGRTFWTYTMGCYRQAPWKEREFVAAITFGDGSTSYADYVKGRFTISRDNAKNTVFLQMNSLKQEDTAVYYCAKRWRRRFVDVWSLYDYWGHGTQVTVSS	low polyreactivity
QVQLVESGGGLVQAGGSLRLSCAASGIIFQRNDMGWYRQAPGKERELVANIRDGGITYADSVKGRFTISRDNAKNTVYLQMNSLKPEDTAVYYCARDDTSPGYCDQSSNAAYYYWGQGTQVTVSS	low polyreactivity
